From US20060193771A1 come the findings set out here.

The target in test [1] is human CD30, native, expressed on cells (human). Description: FACS, L428 cells, control HeFi-I.
Test [2] shares this target. Description: FACS, L540 cells, control HeFi-I.
For test [3], the target named is transferrin receptor on L540 cells (UniProt P02786). The test can be described thus: cell-based or functional assay.
Test [4] addresses human CD30, native, expressed on cells (human). Description: FACS, L540 cells, MAb 5 µg/ml, control HeFi-I. (In general: A flow cytometer gives signals particle by particle.)
For test [5] the target is unchanged. Description: competitive FACS on L540 cells, unlabeled MAb 2.5 µg/ml; competitor: biotin-HeFi-I.
Test [6] shares this target. Description: competitive FACS on L540 cells, unlabeled MAb 2.5 µg/ml; competitor: biotin-T6.
The target is the same in test [7]. The test can be described thus: competitive FACS on L540 cells, unlabeled MAb 2.5 µg/ml; competitor: biotin-T24.
The target in test [8] is T1, CD30-Fc (human).
T1 sequence: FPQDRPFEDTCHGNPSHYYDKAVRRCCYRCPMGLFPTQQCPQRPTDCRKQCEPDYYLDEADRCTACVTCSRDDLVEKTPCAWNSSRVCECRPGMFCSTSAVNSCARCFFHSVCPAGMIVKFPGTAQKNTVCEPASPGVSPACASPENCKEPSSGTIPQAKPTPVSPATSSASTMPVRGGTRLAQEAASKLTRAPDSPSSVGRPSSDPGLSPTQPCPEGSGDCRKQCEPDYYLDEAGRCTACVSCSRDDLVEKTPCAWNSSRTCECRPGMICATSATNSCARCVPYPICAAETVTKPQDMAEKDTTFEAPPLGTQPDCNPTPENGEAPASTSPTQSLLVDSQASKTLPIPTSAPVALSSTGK
Description: indirect ELISA, CD30-Fc coated. In general terms: ELISA stands for enzyme-linked immunosorbent assay.

The target of test [9] is human CD30, native, expressed on cells (human). The test can be described thus: competitive FACS on L540 cells, unlabeled MAb 2.5 µg/ml; competitor: biotin-T14.
The target is the same in test [10]. The test can be described thus: FACS, L428 cells, MAb 5 µg/ml, control HeFi-I.
In test [11] the target is T2, recombinant soluble CD30 (sCD30) produced in E. coli (human).
T2 sequence: T1 sequence
The test can be described thus: indirect ELISA, sCD30 coated.

Test [12] concerns the target human CD30, native, expressed on cells (human). Description: competitive FACS on L540 cells, unlabeled MAb 2.5 µg/ml; competitor: biotin-HRS-4.
The target is the same in test [13]. Description: competitive FACS on L540 cells, unlabeled MAb 2.5 µg/ml; competitor: biotin-T25.

Chain of transferrin receptor on L540 cells (P02786 whole entry): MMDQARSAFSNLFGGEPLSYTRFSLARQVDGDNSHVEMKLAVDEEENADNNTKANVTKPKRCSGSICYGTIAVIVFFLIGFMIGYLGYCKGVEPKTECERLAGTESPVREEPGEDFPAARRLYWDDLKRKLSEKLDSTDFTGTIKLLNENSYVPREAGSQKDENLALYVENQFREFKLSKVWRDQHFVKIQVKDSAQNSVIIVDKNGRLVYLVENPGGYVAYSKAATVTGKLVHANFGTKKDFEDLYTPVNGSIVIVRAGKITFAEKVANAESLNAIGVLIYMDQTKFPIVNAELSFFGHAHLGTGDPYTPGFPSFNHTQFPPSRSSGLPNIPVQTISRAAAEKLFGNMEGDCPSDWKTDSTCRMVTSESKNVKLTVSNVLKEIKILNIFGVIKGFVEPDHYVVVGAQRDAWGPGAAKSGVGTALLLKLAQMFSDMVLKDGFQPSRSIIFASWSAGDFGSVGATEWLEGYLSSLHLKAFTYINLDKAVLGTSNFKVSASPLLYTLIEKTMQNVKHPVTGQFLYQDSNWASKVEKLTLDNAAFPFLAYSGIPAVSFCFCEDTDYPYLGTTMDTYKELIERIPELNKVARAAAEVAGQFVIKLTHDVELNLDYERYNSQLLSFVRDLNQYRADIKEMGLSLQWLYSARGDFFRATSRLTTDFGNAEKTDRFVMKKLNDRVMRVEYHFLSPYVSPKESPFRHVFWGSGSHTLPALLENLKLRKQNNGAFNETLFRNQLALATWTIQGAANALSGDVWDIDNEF
Chain of HB21(scFv)-PE40 (P11439 278-638): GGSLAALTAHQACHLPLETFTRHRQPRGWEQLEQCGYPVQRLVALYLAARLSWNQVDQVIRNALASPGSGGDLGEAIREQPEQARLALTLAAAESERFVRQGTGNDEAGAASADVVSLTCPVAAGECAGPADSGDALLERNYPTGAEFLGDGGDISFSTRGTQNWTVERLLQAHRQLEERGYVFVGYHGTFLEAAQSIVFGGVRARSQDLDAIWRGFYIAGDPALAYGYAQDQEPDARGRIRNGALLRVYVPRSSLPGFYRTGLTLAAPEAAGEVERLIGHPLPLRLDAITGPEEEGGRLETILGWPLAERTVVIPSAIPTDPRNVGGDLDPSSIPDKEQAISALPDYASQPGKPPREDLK

Take control mouse IgG1 (antibody): the relative reactivity in FACS (% of control) is 16 % of control in test [1] and 0.2 % of control in test [2].
Regarding “HB21(scFv)-PE40 (from UniProt P11439 278-638)”, in test [3], the IC50 (ng/ml) in cytotoxicity test, A431/CD25 cells stood at 0.03 ng/mL; the IC50 (ng/ml) in cytotoxicity test, A431/CD30 cells is 0.02 ng/mL; the IC50 (ng/ml) in cytotoxicity test, HUT102W cells was 1.5 ng/mL; the IC50 (ng/ml) in cytotoxicity test, SUDHL-1 cells is 0.05 ng/mL. In test [3], this substance came in with an IC50 (ng/ml) in cytotoxicity test, SUP-M2 cells of 0.02 ng/mL.
Consider Ber-H2 MAb (antibody), for which the relative reactivity in FACS (% of control) in test [4] was 111 % of control; in [10] it was 160 % of control. Also, the inhibition of the binding of biotin-MAb (%) in [5] is 0%; in test [6] it was 75.6%; in [7], 18.2%; in [9] it was 108%; in [12], 80.3%; in test [13] it was 23.3%. For the same substance, the figures for the titer in ELISA in test [8] and in test [11] were 75 mL/µg and 50 mL/µg, respectively.
Turning to HRS-4 MAb (antibody), the inhibition of the binding of biotin-MAb (%) was 0% in [5]; 87.4% in [6]; 3.9% in [7]; 108% in test [9]; 82.6% in test [12]; 25% in [13]. Further, the titer in ELISA in [8] came to 50 mL/µg.
